System: MS2 coat protein
Experiment: apparent KD of MS2 coat protein; higher = weaker reporter binding
Settings: Eterna round: R107
Experimental: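 RNA-MaP round R107: designed RNA switches with theophylline, tryptophan, arginine or FMN aptamers are transcribed on-chip within common flanks. They are titrated with SNAP-549-labelled MS2 coat protein in RNA-MaP buffer (100 mM Tris pH 7.5, 80 mM KCl, 4 mM MgCl2), without ligand or with the indicated ligand. Median apparent KD per design.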

[1] = input ligand: theophylline 20 uM
[2] = input ligand: tryptophan 2.4 mM
[3] = input ligand: theophylline 2 mM

| Sequence | apparent KD of MS2 coat protein (input ligand: arginine 13.2 mM) [µM] | apparent KD of MS2 coat protein [1] [µM] | apparent KD of MS2 coat protein [2] [µM] | apparent KD of MS2 coat protein (input ligand: none) [µM] | apparent KD of MS2 coat protein [3] [µM] |
| --- | --- | --- | --- | --- | --- |
| GCUUAGAAACCUGAUACCAGUCAGCCCUAUGACAUGAGGAUCACCCAUGUGAUACUCACGGACCCUUGGCAGCAGGGUCGAUUAC [theeternabot_sameState_MS2_Theo_B_17] | 0.231 | 0.812 | 1 |  |  |
| GGACUAACCAGAAGGAGCGACACGCAGAAACUGCUAAAUCCUCCGCACGAGGAUCACCCGUGUCAGGUAGGUCGCUGGUUAGUCG [ArgBX 28] | 0.0362 | 0.0667 | 0.0499 | 0.0455 | 0.0475 |
| UUAUGAUGUUCCGAUACCAGCCAUGUGGUUCUAACUUAACAUGAGGAUCACCCAUGUACCGGCCCUUGGCAGCGGAUGUGGAUUA [Flamini] | 0.012 | 0.0148 | 0.0126 |  |  |
| GGUGGCGUGACGGAUACCAGCCACCGCGGCAACGCAACAUGAGGAUCACCCAUGUUGGGUGGCCCUUGGCAGCUGUCGUGCGGCG [#1 Same State - Theophylline B Attempt #23 (HarryS)] | 0.0474 | 0.0793 | 0.0781 | 0.0862 | 0.0275 |
| GAUGAACUAUUUGAUACCAGACAACAUGAGGAUCACCCAUGUGCGCGUCGUCCUCUGCCUGUCCCUUGGCAGCAAAUAGUUUAUC [XTheo B #10] | 0.0526 | 0.0818 | 0.0366 |  |  |
| AAUUAAACAUCGGCCGCCACUUACUCAUGAGGUAACAACAUGAGGAUCACCCAUGUUUGAGGAUCAAGGACCGGGAUGUAAUAAU [AstrosSSTryB#2] | 0.0232 | 0.0385 |  |  | 0.0368 |
| UCGGAUGCGGCGGCCGCCACUCGCGGAUAACGAUAGCUUAACAUGAGGAUCACCCAUGUGUCAUGGAGGACCGGGCCCAUACCGU [pbpmullin] | 0.0188 | 0.0364 |  |  | 0.0263 |
| AAUUCCUCACAUGAGGAUCACCCAUGUGAAGGAGCGCCGAAUAAGGCAGGUAGGUCGCACAUGGAAACCUCUACGAAAGUAGUAA [XArg-A 3 NuV1V2] | 0.0165 | 0.0208 | 0.0156 | 0.0158 | 0.0182 |
| ACAUUUAACUGAAGGAGCGUGAUAUUUACAUGAGGAUCACCCAUGUCUUUCAUGAUAUAUUCACAGGUAGGUCGCAGACUAAUGA [JR_ExcArginiB_Sub006] | 0.118 | 0.16 | 0.184 | 0.125 | 0.305 |
| UUAGAUAUGACGGAUACCAGCGUGUUGUAGAACAUGAGGAUCACCCAUGUAGUGAUCGAGCGCCCUUGGCAGCUGGUAUGUUUGG [7.T] | 0.175 | 0.203 | 0.335 |  |  |
| AGCUACUCGUUCCUCAUGUACGAGUGGCAACGAGGACCGGUACGGCCGCCACUCGAAUAAACAUGAGGAUCACCCAUGUACAAAU [T''-M-T'-T-MS2 - Design 8] | 0.0429 | 0.168 |  |  | 0.179 |
| CUAUAAAUAGCGGCCGCCACUUACUCAUGAGGUAACAACAUGAGGAUCACCCAUGUUUGAGGAUCAAGGACCGGGCUAUUUAUAG [AstrosSSTryB#8] | 0.0237 | 0.0328 |  |  | 0.0361 |
| UAAAUACAUGAGGAUCACCCAUGUUUGGAUACCAGAUAUGACAUUAUCCCUUGGCAGCCAUUCGUUCCAAAUGCUAUUGUGAAGG [theeternabot_sameState_MS2_Theo_A_26] | 0.0206 | 0.0308 | 0.022 |  |  |
| GUUAUAGACGGAAGGAGCGCGACCACAUGAGGAUCACCCAUGUAUUGUGUUGGUAAUAGGUCGCAGGUAGGUCGCCGGUUAAUGA [#04 Same State - Arginine B] | 0.0271 | 0.0501 | 0.031 | 0.0366 | 0.038 |
| UGUGUAAUUGUCUGGUAGAAUUAUUUGUUUCGAGGACCGGUACGGCCGCCACUCGAUAUUUACAUGAGGAUCACCCAUGUUAGCU [JR_SSTryptoA_Sub004] | 0.0139 | 0.0143 | 0.0116 | 0.014 | 0.0149 |
| CCCAGUCAUAGCAAAGCAAAUAUACUCGAAGGAGCGUCAUAGUAGGCAGGUAGGUCGCGAGACAUGAGGAUCACCCAUGUAGAGA [ooomullin] | 0.0356 | 0.0467 | 0.0413 | 0.0397 | 0.0578 |
| UAGCGAUUUGGUGAUACCAGACGUGUGCAGUCCUCAGACAUGAGGAUCACCCAUGUAUGCGUCCCUUGGCAGCGCUAUGAGGACA [Theo B Ex t6] | 0.0665 | 0.105 | 0.0443 | 0.0484 | 0.201 |
| GGCGCGCGCCAACAUGAGGAUCACCCAUGUCGAGGACCGGUACGGCCGCCACUCGAACGAGUGAAGCGCGCGCGCGGGCGACCGC [Saa] | 0.0366 | 0.0425 | 0.0771 | 0.0397 | 0.0471 |
| ACAUCCAGAUUAAUCGUGGGCAUACUCGAUACCAGUAUUUUAAUCUACCCUUGGCAGCGACAUGAGGAUCACCCAUGUGCGAUGA [XTheo A #11] | 0.0117 | 0.0139 | 0.0124 |  |  |
| UGUAUGGACUGAAGGAGCGGGAAAUAAACCUGAGGAUCACCCAGGUAAUAGGCGAAAGCCACCCAGGUAGGUCGCAGUCCAUACU | 0.0107 | 0.0143 | 0.0106 | 0.00991 | 0.012 |
| GUUACCAUGUCGGCCGCCACUAACAAGGUUAUGGCAAGUCUACACGACAUGAGGAUCACCCAUGUUAGGACCGGGACCCAUACCC [theeternabot_exclusion_MS2_Trp_B_44] | 0.0122 | 0.0175 |  |  | 0.0162 |
| AUUUUCGUAGGUUAAAGUUUAGAAACUGAAGGAGCGUGGUAUUACACAGGUAGGUCGCAGAUUUUACAUGAGGAUCACCCAUGUU [JR_ExcArginiA_Sub011] | 0.0149 | 0.0254 | 0.0177 | 0.022 | 0.0206 |
| GGUGAUCCGUGCUGCCGGAUCAUCGGUGAUACCAGCAUCGAAAGAUGCCCUUGGCAGCACCAACAUGAGGAUCACCCAUGUAAUA [(M)'-(T)'-(M)''-(T1)-(T2)-(M1)-(M2)_Design5] | 0.046 | 0.231 | 0.163 |  |  |
| ACUAACUAUAGUGAUACCAGACGUACAUGAGGAUCACCCAUGUUACAUUCUUGGUUAAAAGUCCCUUGGCAGCACGAUAAGUUCG [JR_Nu_ExcTheophyB_Sub025] | 0.0097 | 0.0112 | 0.01 |  |  |
| CCGUCACAUGAGGAUCACCCAUGUGCGGAAGGAGCGGACGACAGUCCAGGUAGGUCGCCGUAUAGCCAAUGACCAGCAGUGUCGG [Betesotiqu] | 0.0059 | 0.0208 | 0.0139 | 0.0106 | 0.00993 |
| GGACUAACCAGAAGGAGCGACACGCAGAAACUGCAAUUUCCUCCACACGAGGAUCACCCGUGUCAGGUAGGUCGCUGGUUAGUCG | 0.0283 | 0.0373 | 0.0267 | 0.0254 | 0.031 |
| AGCACAUGAGGAUCACCCAUGUGAGGUGAUACCAGUGAGAAGAAGCACCCUUGGCAGCACUUGGGUACAUGAGGAUCACCCAUGU [Exclusion Theophylline A GF9] | 0.0474 | 0.0778 | 0.0547 |  |  |
| GUUGGAUACUCGGCCGCCACUGAGAGAGUCAUGUGAACAUGAGGAUCACCCAUGUAAUAUAUAUACAGGACCGGGAGUGUUGUAA [4.I] | 0.0203 | 0.0437 |  |  | 0.0325 |
| GGACUAACCAGAAGGAGCGGCACGCAGAAACUGCUAAUUCCUCCGCACGAGGAUCACCCGUGUCAGGUAGGUCGCUGGUUAGUCG [ArgBX 28] | 0.0149 | 0.0138 | 0.013 | 0.0113 | 0.0148 |
| AAACGUUGCUCAGAUACCAGACAUGAGGAUCACCCAUGUACCAAGGUACCCGAAAGGAAUGUCCCUUGGCAGCUGAGCAACGAAA [MAT - Exclusion Theophlline B - Mod of Eli - D21] | 0.0111 | 0.0119 | 0.0104 |  |  |

From the supplement of paper PMC9170038
